# Measured values reported in the supplement of paper PMC9112550, “Optimization of the antimicrobial peptide Bac7 by deep mutational scanning” (BMC Biology, 2022).
# System: Escherichia coli TOP10
# Test: shrunken log2 fold change of peptide-encoding DNA abundance (4.5 h post-induction vs induction); higher = less antimicrobial activity (less host growth inhibition)
# Conditions: time post-induction: 4.5 h; library: site-saturation at positions 5, 18, 19, 20
# 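Note: peptides expressed intracellularly from a pBAD plasmid library in pooled LB shake-flask culture, induced with 0.3% L-arabinose, DNA abundance read by NGS, three biological replicates, DESeq2 with apeglm shrinkage.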
row,Sequence,shrunken log2 fold change
1,RRIRRRPPRLPRPRPRPYGTPRP,-0.231
2,RRIRRRPPRLPRPRPRPYIIPRP,-0.427
3,RRIRRRPPRLPRPRPRPYKFPRP,0.0202
4,RRIRRRPPRLPRPRPRPYKNPRP,-0.47
5,RRIRRRPPRLPRPRPRPYLQPRP,-0.548
6,RRIRRRPPRLPRPRPRPYMFPRP,-0.448
7,RRIRRRPPRLPRPRPRPYMLPRP,-0.685
8,RRIRRRPPRLPRPRPRPYNRPRP,-0.276
9,RRIRRRPPRLPRPRPRPYRWPRP,-0.356
10,RRIRRRPPRLPRPRPRPYRYPRP,0.0464
11,RRIRRRPPRLPRPRPRPYSGPRP,-0.000826
12,RRIRRRPPRLPRPRPRPYVQPRP,0.0531
13,RRIRRRPPRLPRPRPRPYWAPRP,-0.199
14,RRIRRRPPRLPRPRPRPYYMPRP,-0.408
15,RRIRRRPPRLPRPRPRPYYSPRP,-0.532
16,RRIRRRPPRLPRPRPRPYYVPRP,-0.427
17,RRIRSRPPRLPRPRPRPAAAPRP,0.868
18,RRIRSRPPRLPRPRPRPAADPRP,0.252
19,RRIRSRPPRLPRPRPRPACTPRP,0.28
20,RRIRSRPPRLPRPRPRPADDPRP,0.479
21,RRIRSRPPRLPRPRPRPADFPRP,-0.0669
22,RRIRSRPPRLPRPRPRPAEHPRP,0.0851
23,RRIRSRPPRLPRPRPRPAEIPRP,-0.136
24,RRIRSRPPRLPRPRPRPAEPPRP,-0.16
25,RRIRSRPPRLPRPRPRPAEYPRP,-0.0544

row,Sequence,shrunken log2 fold change
1,RRIRSRPPRLPRPRPRPAFCPRP,0.259
2,RRIRSRPPRLPRPRPRPAGCPRP,0.459
3,RRIRSRPPRLPRPRPRPAGDPRP,0.116
4,RRIRSRPPRLPRPRPRPAHIPRP,-0.0188
5,RRIRSRPPRLPRPRPRPAIFPRP,0.0447
6,RRIRSRPPRLPRPRPRPAIIPRP,0.0969
7,RRIRSRPPRLPRPRPRPAINPRP,-0.131
8,RRIRSRPPRLPRPRPRPAKMPRP,-0.0464
9,RRIRSRPPRLPRPRPRPALLPRP,0.42
10,RRIRSRPPRLPRPRPRPAMSPRP,-0.0932
11,RRIRSRPPRLPRPRPRPANPPRP,0.11
12,RRIRSRPPRLPRPRPRPAPSPRP,1.24
13,RRIRSRPPRLPRPRPRPASNPRP,-0.101
14,RRIRSRPPRLPRPRPRPASVPRP,0.377
15,RRIRSRPPRLPRPRPRPATRPRP,0.415
16,RRIRSRPPRLPRPRPRPAWLPRP,0.534
17,RRIRSRPPRLPRPRPRPAWQPRP,0.0367
18,RRIRSRPPRLPRPRPRPAYLPRP,-0.731
19,RRIRSRPPRLPRPRPRPCCDPRP,-0.284
20,RRIRSRPPRLPRPRPRPCCTPRP,-0.0345
21,RRIRSRPPRLPRPRPRPCDHPRP,-0.138
22,RRIRSRPPRLPRPRPRPCDQPRP,-0.0341
23,RRIRSRPPRLPRPRPRPCDVPRP,-0.0124
24,RRIRSRPPRLPRPRPRPCFRPRP,-0.349
25,RRIRSRPPRLPRPRPRPCFWPRP,0.294

row,Sequence,shrunken log2 fold change
1,RRIRSRPPRLPRPRPRPCGAPRP,0.327
2,RRIRSRPPRLPRPRPRPCGEPRP,0.385
3,RRIRSRPPRLPRPRPRPCHSPRP,0.00316
4,RRIRSRPPRLPRPRPRPCIIPRP,0.00867
5,RRIRSRPPRLPRPRPRPCMQPRP,-0.31
6,RRIRSRPPRLPRPRPRPCMRPRP,0.0526
7,RRIRSRPPRLPRPRPRPCPIPRP,-0.267
8,RRIRSRPPRLPRPRPRPCPWPRP,-0.115
9,RRIRSRPPRLPRPRPRPCQEPRP,-0.0101
10,RRIRSRPPRLPRPRPRPCQFPRP,-0.0444
11,RRIRSRPPRLPRPRPRPCQSPRP,-0.01
12,RRIRSRPPRLPRPRPRPCSTPRP,0.129
13,RRIRSRPPRLPRPRPRPCTHPRP,-0.00194
14,RRIRSRPPRLPRPRPRPCTNPRP,-0.256
15,RRIRSRPPRLPRPRPRPCTSPRP,-0.0192
16,RRIRSRPPRLPRPRPRPCVFPRP,-0.112
17,RRIRSRPPRLPRPRPRPCVNPRP,-0.0338
18,RRIRSRPPRLPRPRPRPCWDPRP,-0.189
19,RRIRSRPPRLPRPRPRPCWWPRP,0.159
20,RRIRSRPPRLPRPRPRPCYLPRP,-0.586
21,RRIRSRPPRLPRPRPRPDAFPRP,0.387
22,RRIRSRPPRLPRPRPRPDAIPRP,0.339
23,RRIRSRPPRLPRPRPRPDAKPRP,0.0687
24,RRIRSRPPRLPRPRPRPDASPRP,0.495
25,RRIRSRPPRLPRPRPRPDDKPRP,0.132
